The target of the assay is T1, MAP1B LC-mScarlet (Mus musculus (Mouse), UniProt P14873).
T1 chain: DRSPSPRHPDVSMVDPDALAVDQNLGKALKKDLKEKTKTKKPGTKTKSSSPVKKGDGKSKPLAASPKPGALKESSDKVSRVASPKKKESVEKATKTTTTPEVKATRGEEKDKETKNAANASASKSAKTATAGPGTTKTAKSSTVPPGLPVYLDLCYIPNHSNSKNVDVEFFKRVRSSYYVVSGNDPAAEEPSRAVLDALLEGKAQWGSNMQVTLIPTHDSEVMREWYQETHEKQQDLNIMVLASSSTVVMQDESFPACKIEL
The assay can be described thus: TIRF microscopy recruitment assay on microtubules; tested on taxol-stabilised microtubules.

B1: sfGFP-MAP1B HC^1-532 (protein)
chain: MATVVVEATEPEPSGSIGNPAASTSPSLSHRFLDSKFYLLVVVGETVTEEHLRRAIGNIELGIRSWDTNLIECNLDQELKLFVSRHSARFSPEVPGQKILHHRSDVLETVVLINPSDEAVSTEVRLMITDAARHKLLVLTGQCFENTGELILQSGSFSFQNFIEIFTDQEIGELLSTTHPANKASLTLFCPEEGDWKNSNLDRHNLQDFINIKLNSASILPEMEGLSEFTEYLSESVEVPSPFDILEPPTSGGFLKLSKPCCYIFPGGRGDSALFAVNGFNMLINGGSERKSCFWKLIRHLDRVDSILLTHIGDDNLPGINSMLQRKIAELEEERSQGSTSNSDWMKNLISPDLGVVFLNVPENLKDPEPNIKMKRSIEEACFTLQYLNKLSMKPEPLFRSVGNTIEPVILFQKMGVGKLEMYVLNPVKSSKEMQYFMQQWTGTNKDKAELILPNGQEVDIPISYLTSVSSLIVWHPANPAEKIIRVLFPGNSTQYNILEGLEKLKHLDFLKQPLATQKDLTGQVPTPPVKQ
On to B1, for which the binding result was “no binding”.
